Test results published in FireProtDB (doi:10.1110/ps.041111405).
“And” between values parts separate entries of the source, which are not always exact repeats. Equal entries are not always repeated.

B1: Gamma-crystallin D, P07320 (parent)
chain: MGKITLYEDRGFQGRHYECSSDHPNLQPYLSRCNSARVDSGCWMLYEQPNYSGLQYFLRRGDYADHQQWMGLSDSVRSCRLIPHSGSHRIRLYEREDYRGQMIEFTEDCSCLQDRFRFNEIHSLNVLEGSWVLYELSNYRGRQYLLMPGDYRRYQDWGATNARVGSLRRVIDFS

Variants of: B1
Conditions: Homo sapiens; pH 7; 37 °C; GdnHCl; Fluorescence; Sodium phosphate 10 mM; transition: 3; structure 1HK0; whole UniProt chain shown

For V170A, the “ddG of mutation (higher = less stable)” value was -1.3 kcal/mol, the denaturant m value was 4 kcal/mol/M and the “denaturant midpoint (higher = more stable)” value (“denaturant midpoint” for short) was 2.5 M. The unfolding free energy was 10.2 kcal/mol.

In the case of I82A, the denaturant m value is reported as 3.7 kcal/mol/M and 3 kcal/mol/M, the “denaturant midpoint” value is reported as 1.5 M and 2.9 M and the unfolding free energy is reported as 5.3 kcal/mol and 8.7 kcal/mol.

In the case of F57A, the denaturant m value is reported as 3.9 kcal/mol/M and 3.2 kcal/mol/M, the “denaturant midpoint” value is reported as 1.6 M and 2.9 M and the unfolding free energy is reported as 6.1 kcal/mol and 9.3 kcal/mol.

For M44A, the denaturant m value was 3.7 kcal/mol/M and 2.8 kcal/mol/M, the “denaturant midpoint” value was 2.2 M and 2.9 M and the unfolding free energy was 7.7 kcal/mol and 8.1 kcal/mol.

With L145A the “ddG of mutation (higher = less stable)” value was 1.2 kcal/mol and 1.4 kcal/mol, the denaturant m value was 3.9 kcal/mol/M and 2.9 kcal/mol/M and the “denaturant midpoint” value was 1.6 M and 2.6 M. The unfolding free energy was 6.5 kcal/mol and 7.5 kcal/mol.

With V132A the “ddG of mutation (higher = less stable)” value was 2.7 kcal/mol and 1.1 kcal/mol, the denaturant m value was 3.7 kcal/mol/M and 3.1 kcal/mol/M and the “denaturant midpoint” value was 1.3 M and 2.5 M. The unfolding free energy was 5 kcal/mol and 7.8 kcal/mol.
